Results: the supplement of paper PMC5998384

How the values were obtained:
HeLa Kyoto [1] = assay: solubility in G1/S (NP-40 vs SDS abundance) (log2 ratio); higher = more soluble; settings: cell cycle stage: G1/S
HeLa Kyoto [2] = assay: melting temperature (median over replicates), in situ; higher = more thermally stable
HeLa Kyoto [3] = assay: solubility change mitosis vs G1/S (difference of NP-40 vs SDS log2 ratios) (log2 ratio difference); higher = more soluble in mitosis
HeLa Kyoto [4] = assay: thermal stability score vs G1/S (z-score of summed log2 fold changes over temperatures); higher = more thermally stable than in G1/S
[5] = cell cycle stage: early G1 (4.5 h after nocodazole release)
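Throughout, for melting temperature (median over replicates), in situ: HeLa Kyoto cells synchronized by double thymidine or nocodazole block, proteins quantified by TMT10plex mass spectrometry, three independent biological replicates.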
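Throughout, for solubility change mitosis vs G1/S (difference of NP-40 vs SDS log2 ratios): synchronized HeLa Kyoto cells (double thymidine block for G1/S, nocodazole release for mitosis), protein amounts in NP-40 versus SDS lysates quantified by mass spectrometry, three biological replicates.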
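Throughout, for solubility in G1/S (NP-40 vs SDS abundance): HeLa Kyoto cells arrested at G1/S by double thymidine block, proteins quantified by TMT10plex mass spectrometry in mild NP-40 versus SDS extracts, three biological replicates.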
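Throughout, for thermal stability score vs G1/S (z-score of summed log2 fold changes over temperatures): synchronized HeLa Kyoto cells, proteins quantified by TMT10plex mass spectrometry, three biological replicates, mitosis taken 0.5 h after nocodazole release, G1/S directly after double thymidine block.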

Sequence of CIAO1 (chain, as listed by the source): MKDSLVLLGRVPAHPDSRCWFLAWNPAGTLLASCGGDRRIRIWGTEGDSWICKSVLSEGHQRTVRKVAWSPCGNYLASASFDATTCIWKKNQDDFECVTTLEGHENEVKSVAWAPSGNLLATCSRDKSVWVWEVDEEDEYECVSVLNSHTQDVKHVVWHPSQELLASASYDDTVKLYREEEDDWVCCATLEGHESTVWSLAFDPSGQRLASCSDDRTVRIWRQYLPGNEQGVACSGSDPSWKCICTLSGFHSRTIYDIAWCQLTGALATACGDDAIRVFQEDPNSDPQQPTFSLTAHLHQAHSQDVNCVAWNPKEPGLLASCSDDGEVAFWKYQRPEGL
Sequence of CASKIN2 (chain, as listed by the source): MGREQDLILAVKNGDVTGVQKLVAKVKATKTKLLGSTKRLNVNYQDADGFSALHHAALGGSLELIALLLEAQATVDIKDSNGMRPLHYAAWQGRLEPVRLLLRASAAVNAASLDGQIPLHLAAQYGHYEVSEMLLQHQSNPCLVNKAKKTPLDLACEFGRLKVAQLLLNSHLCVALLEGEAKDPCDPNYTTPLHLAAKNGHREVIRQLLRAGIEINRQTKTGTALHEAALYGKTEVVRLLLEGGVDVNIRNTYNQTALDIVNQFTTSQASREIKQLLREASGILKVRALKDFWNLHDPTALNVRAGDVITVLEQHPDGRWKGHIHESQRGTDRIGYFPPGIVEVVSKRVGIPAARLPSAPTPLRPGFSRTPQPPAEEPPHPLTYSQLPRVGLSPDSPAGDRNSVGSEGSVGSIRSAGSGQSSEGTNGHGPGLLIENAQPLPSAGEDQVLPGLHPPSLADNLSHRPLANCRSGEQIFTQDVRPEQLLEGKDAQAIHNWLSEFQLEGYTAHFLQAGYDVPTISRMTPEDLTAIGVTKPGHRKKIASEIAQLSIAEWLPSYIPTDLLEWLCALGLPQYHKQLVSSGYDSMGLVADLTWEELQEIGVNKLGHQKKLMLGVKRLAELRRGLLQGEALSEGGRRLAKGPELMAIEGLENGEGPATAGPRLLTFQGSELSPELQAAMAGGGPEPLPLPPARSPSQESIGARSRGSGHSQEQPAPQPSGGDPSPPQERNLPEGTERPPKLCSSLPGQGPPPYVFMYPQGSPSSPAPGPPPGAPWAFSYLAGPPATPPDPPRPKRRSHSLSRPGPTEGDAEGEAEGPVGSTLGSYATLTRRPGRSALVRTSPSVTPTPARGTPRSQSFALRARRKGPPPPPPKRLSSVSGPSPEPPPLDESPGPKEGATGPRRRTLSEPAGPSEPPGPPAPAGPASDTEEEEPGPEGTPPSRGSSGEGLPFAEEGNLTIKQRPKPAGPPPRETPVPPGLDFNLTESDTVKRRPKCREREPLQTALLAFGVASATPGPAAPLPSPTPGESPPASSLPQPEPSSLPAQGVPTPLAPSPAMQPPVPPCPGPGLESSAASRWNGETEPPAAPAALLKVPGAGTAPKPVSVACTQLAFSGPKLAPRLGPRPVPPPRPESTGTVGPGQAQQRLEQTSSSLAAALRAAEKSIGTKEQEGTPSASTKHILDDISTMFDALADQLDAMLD
Sequence of C5ORF22 (chain, as listed by the source): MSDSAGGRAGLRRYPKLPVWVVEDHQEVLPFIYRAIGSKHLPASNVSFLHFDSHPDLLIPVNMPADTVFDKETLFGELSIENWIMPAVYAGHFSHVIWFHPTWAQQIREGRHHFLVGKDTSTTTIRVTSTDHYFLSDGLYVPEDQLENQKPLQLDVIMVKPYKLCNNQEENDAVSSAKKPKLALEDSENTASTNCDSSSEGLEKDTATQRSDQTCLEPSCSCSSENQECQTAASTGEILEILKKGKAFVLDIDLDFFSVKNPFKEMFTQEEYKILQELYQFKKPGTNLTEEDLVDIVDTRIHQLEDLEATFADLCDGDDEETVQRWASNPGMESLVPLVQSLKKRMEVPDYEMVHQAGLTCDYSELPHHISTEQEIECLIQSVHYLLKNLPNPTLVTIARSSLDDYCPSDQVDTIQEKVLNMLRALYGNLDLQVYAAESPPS
Sequence of ALDH16A1 (chain, as listed by the source): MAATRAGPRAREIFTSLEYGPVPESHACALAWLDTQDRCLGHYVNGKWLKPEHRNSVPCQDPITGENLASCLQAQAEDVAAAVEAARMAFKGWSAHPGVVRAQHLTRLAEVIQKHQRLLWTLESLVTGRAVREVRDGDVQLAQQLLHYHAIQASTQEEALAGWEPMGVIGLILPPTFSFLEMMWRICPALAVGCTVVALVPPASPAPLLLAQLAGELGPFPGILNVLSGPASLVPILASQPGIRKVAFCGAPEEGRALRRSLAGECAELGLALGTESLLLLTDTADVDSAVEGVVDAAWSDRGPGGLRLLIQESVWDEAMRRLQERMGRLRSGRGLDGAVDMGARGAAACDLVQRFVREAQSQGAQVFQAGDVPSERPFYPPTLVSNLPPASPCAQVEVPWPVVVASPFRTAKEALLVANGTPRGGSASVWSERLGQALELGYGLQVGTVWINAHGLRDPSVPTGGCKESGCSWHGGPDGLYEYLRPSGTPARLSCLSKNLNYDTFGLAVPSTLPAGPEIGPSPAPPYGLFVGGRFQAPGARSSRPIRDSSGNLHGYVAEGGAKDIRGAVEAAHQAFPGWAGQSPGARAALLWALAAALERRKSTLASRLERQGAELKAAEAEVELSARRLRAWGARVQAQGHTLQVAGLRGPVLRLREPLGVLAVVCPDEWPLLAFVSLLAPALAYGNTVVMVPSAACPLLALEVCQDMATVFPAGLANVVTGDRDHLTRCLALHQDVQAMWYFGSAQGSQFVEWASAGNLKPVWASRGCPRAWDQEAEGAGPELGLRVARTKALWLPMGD
Sequence of BAG3 (chain, as listed by the source): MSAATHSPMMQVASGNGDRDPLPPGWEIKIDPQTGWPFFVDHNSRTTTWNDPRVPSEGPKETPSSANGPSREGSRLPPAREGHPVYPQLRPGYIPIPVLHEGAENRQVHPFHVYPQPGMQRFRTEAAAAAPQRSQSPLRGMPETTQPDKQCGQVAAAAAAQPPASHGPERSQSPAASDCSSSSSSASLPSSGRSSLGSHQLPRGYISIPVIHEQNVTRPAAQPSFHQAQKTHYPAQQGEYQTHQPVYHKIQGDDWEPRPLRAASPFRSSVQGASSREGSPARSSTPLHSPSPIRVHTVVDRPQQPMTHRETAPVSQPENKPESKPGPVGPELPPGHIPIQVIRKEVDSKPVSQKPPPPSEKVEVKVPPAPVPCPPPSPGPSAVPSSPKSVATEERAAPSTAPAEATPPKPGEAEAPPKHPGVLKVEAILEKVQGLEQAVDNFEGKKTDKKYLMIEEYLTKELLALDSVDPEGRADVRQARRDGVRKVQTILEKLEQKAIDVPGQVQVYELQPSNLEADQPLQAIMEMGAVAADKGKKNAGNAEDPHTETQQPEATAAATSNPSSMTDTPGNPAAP
Sequence of AFG3L2 (chain, as listed by the source): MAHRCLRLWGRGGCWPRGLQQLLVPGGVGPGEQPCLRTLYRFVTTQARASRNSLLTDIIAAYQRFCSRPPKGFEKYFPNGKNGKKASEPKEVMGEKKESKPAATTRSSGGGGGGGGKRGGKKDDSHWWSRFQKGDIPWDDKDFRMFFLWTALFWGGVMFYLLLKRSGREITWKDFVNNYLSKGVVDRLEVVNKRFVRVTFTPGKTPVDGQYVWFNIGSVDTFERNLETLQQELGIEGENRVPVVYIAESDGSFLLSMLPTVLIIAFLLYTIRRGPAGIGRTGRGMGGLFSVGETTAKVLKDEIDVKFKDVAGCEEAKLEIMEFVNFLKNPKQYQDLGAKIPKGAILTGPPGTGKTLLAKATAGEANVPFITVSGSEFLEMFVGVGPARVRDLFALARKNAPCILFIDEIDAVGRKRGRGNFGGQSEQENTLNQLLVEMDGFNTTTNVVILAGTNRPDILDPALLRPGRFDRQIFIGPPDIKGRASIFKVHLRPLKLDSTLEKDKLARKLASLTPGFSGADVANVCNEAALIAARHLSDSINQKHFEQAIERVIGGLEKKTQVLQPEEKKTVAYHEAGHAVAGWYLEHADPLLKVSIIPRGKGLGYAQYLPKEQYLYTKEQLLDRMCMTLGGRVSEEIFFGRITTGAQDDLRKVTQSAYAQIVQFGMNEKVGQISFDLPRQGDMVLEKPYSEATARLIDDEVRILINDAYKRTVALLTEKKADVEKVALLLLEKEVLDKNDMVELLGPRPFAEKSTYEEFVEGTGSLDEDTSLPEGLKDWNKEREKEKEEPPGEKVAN
Sequence of ASNA1 (chain, as listed by the source): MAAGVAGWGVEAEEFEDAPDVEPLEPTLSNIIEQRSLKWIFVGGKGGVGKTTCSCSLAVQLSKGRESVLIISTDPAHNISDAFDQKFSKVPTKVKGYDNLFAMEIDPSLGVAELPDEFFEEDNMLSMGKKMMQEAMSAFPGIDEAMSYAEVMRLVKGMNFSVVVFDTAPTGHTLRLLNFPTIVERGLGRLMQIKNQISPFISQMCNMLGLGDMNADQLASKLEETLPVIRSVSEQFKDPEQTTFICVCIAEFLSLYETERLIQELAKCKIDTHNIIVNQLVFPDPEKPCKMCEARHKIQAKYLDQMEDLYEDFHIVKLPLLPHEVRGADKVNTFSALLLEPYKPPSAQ
Sequence of ACP2 (chain, as listed by the source): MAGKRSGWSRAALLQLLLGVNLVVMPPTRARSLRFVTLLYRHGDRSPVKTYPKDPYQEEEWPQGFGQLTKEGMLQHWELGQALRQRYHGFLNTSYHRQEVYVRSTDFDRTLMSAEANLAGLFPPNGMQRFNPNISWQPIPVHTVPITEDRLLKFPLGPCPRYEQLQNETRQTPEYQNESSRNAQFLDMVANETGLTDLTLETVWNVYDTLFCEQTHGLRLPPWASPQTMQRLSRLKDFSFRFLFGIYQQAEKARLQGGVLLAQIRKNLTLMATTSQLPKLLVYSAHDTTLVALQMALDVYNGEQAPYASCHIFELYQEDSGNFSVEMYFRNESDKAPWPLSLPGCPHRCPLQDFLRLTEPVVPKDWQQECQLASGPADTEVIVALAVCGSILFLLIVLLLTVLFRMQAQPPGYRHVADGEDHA

Substance	solubility in G1/S (log2) (HeLa Kyoto [1])	melting temperature (HeLa Kyoto [2]; cell cycle stage: G1/S)	melting temperature (HeLa Kyoto [2]; cell cycle stage: mitosis)	solubility change mitosis (log2) (HeLa Kyoto [3])	thermal stability score (HeLa Kyoto [4]; [5])	thermal stability score (HeLa Kyoto [4]; cell cycle stage: mitosis)
ABCC2	-0.128	51.6 °C	51.6 °C	-0.0305	0.294	-0.626
ABCC5	-0.243	53.6 °C	53.8 °C	0.0132	-0.48	-1.25
ACP2	0.434	56.1 °C	57.2 °C	0.018	-1.34	-0.755
AFG3L2	0.107	51.8 °C	51.9 °C	-0.0792	2.84	0.443
AGAP3	0.259	49.3 °C	49.9 °C	-0.0465	0.047	0.315
AGL	-0.215	51.1 °C	50.6 °C	-0.204	-0.229	-0.757
AHCTF1	-1.38	50.7 °C	50.5 °C	1.06	-1.63	-0.353
ALDH16A1	0.152	58 °C	56.3 °C	-0.043	-4.57	-4.01
ARHGEF5	0.0254	50.6 °C	51.4 °C	-0.0134	0.0128	1.32
ARNT	0.243	51.9 °C	51.7 °C	-0.182	0.603	0.868
ASNA1	0.349	53.4 °C	54.6 °C	-0.258	0.0219	1.19
ATG3	0.11	54.3 °C	54.1 °C	-0.0379	0.129	-0.694
BAG3	0.185	53.6 °C	53.1 °C	1.06	1.43	5.24
BAZ1A	-0.551	45.9 °C	49 °C	0.356	1.48	3.95
BOD1L1	-0.161	56 °C	56 °C	0.0131	-3.05	-3.12
C5ORF22	0.303	50.7 °C	–	-0.166	-0.108	1.41
CAMSAP1	-0.149	50.4 °C	50.2 °C	0.0139	-0.2	0.324

Substance	solubility in G1/S (log2) (HeLa Kyoto [1])	melting temperature (HeLa Kyoto [2]; cell cycle stage: G1/S)	melting temperature (HeLa Kyoto [2]; cell cycle stage: mitosis)	solubility change mitosis (log2) (HeLa Kyoto [3])	thermal stability score (HeLa Kyoto [4]; [5])	thermal stability score (HeLa Kyoto [4]; cell cycle stage: mitosis)
CASKIN2	0.412	49.4 °C	48.8 °C	-0.0911	0.8	1.68
CCDC88A	0.124	49 °C	49 °C	-0.1	-0.404	1.05
CDK13	-0.604	50.9 °C	52.5 °C	0.194	-0.541	0.202
CHD4	-0.471	46.9 °C	49.1 °C	0.0937	3.38	8.56
CIAO1	-0.222	52.5 °C	52.9 °C	-0.176	-0.588	-2.26
CKAP5	0.0443	49.6 °C	49.2 °C	-0.078	-0.177	-0.509
CLPX	0.103	50.6 °C	50.2 °C	-0.0641	2.55	0.77
COL5A2	-0.0207	54.6 °C	57.9 °C	0.0391	2.88	0.949
CSNK2B	0.227	50.8 °C	51.1 °C	0.0236	0.696	0.623
CTBP2	0.144	55.3 °C	53.4 °C	-0.0285	-2.44	-6.63
DCK	0.17	53.9 °C	53.1 °C	-0.103	2.05	2.37
DENND4C	0.0629	50.6 °C	50.8 °C	-0.154	0.187	0.554
DHRS1	0.111	50.7 °C	51 °C	0.0211	0.897	0.418
DIDO1	-0.458	49.1 °C	49.8 °C	0.231	0.743	4.5
DMD	0.235	49.9 °C	50.2 °C	-0.235	0.00802	0.278
DOCK10	-0.189	52.3 °C	51.8 °C	-0.143	-1.12	-0.873
DOCK11	-0.234	51.4 °C	51.5 °C	-0.145	0.076	-0.52
